From article PMC11898529, “The LSmAD Domain of Ataxin-2 Modulates the Structure and RNA Binding of Its Preceding LSm Domain” come the findings set out here.

Data set [1] has as its target LSmAD domain of Ataxin-2 (UniProt Q99700 353-475). Briefly: EMSA; protein/RNA molar ratio up to 6; 1 mM MgCl2; EMSA: 10 mM Tris pH 8.0, 25 mM KCl, 10 mM NaCl, 1 mM MgCl2, 10% glycerol, 0.5 mM DTT, 20 min, 25 C; SEC and SHAPE buffers not in material. The following applies: protein: recombinant, tags: His tag, single strand with flanking hairpins. On the technique in general: Mobility shift assays separate free from complexed probe on a gel.

Data set [2] addresses T1, LSm-LSmAD M2 mutant of Ataxin-2 (UniProt Q99700 242-475, S315Q;S317T). In words: EMSA; fully shifted at protein/RNA molar ratio 20; moderate affinity; 1 mM MgCl2; EMSA: 10 mM Tris pH 8.0, 25 mM KCl, 10 mM NaCl, 1 mM MgCl2, 10% glycerol, 0.5 mM DTT, 20 min, 25 C; SEC and SHAPE buffers not in material. The note with it: protein: recombinant; single strand with flanking hairpins.

The target of data set [3] is T2, LSm domain of Ataxin-2 (UniProt Q99700 242-344). Briefly: size-exclusion chromatography; EMSA: 10 mM Tris pH 8.0, 25 mM KCl, 10 mM NaCl, 1 mM MgCl2, 10% glycerol, 0.5 mM DTT, 20 min, 25 C; SEC and SHAPE buffers not in material. The following applies: protein: recombinant, tags: His tag (pET-22b(+), NdeI/XhoI), single strand with flanking hairpins. For orientation: SEC sorts molecules by how far they enter the pores of the column.

Data set [4] has as its target T2, LSm domain of Ataxin-2. In words: SHAPE footprinting; AU- and GU-rich protected (AU more than with M2); CA-rich unchanged; EMSA: 10 mM Tris pH 8.0, 25 mM KCl, 10 mM NaCl, 1 mM MgCl2, 10% glycerol, 0.5 mM DTT, 20 min, 25 C; SEC and SHAPE buffers not in material. The note with it: protein: recombinant; tags: His tag (pET-22b(+), NdeI/XhoI).
Data set [5] deals with T1, LSm-LSmAD M2 mutant of Ataxin-2. In words: SHAPE footprinting; AU- and GU-rich protected (GU more than with LSm); CA-rich unchanged; EMSA: 10 mM Tris pH 8.0, 25 mM KCl, 10 mM NaCl, 1 mM MgCl2, 10% glycerol, 0.5 mM DTT, 20 min, 25 C; SEC and SHAPE buffers not in material. The note with it: protein: recombinant.
The target is the same in data set [6]. Briefly: SHAPE footprinting; AU-, GU-, CU-rich protected, more than with LSm; CA-rich unchanged; EMSA: 10 mM Tris pH 8.0, 25 mM KCl, 10 mM NaCl, 1 mM MgCl2, 10% glycerol, 0.5 mM DTT, 20 min, 25 C; SEC and SHAPE buffers not in material. The note with it: protein: recombinant.
Data set [7] concerns the target T2, LSm domain of Ataxin-2. Briefly: SHAPE footprinting; AU-, GU-, CU-rich protected, less than with M2; CA-rich unchanged; EMSA: 10 mM Tris pH 8.0, 25 mM KCl, 10 mM NaCl, 1 mM MgCl2, 10% glycerol, 0.5 mM DTT, 20 min, 25 C; SEC and SHAPE buffers not in material. The note with it: protein: recombinant; tags: His tag (pET-22b(+), NdeI/XhoI).
For data set [8], the target named is T1, LSm-LSmAD M2 mutant of Ataxin-2. Briefly: SHAPE footprinting; GU-, AU-, CU-rich protected (CU most); CA-rich unchanged; EMSA: 10 mM Tris pH 8.0, 25 mM KCl, 10 mM NaCl, 1 mM MgCl2, 10% glycerol, 0.5 mM DTT, 20 min, 25 C; SEC and SHAPE buffers not in material. The note with it: protein: recombinant.
Data set [9] addresses T2, LSm domain of Ataxin-2. The data set is described as above. The following applies: protein: recombinant; tags: His tag (pET-22b(+), NdeI/XhoI).

T2 sequence (Q99700 242-344): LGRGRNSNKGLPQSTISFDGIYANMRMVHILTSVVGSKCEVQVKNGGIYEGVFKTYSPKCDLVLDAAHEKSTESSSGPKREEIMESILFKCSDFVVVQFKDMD
T1 sequence (Q99700 242-475 S315Q/S317T): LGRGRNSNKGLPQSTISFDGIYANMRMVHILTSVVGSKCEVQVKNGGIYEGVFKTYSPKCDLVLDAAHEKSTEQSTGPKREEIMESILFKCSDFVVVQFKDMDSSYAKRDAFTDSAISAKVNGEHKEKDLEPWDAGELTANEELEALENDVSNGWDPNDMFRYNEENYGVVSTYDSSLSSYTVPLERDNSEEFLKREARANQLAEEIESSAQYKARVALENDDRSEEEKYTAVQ
Chain of LSmAD domain of Ataxin-2 (Q99700 353-475): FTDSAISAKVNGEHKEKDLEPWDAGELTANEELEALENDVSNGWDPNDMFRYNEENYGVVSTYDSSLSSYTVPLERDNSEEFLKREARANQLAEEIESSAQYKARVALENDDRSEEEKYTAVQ

B1: AU-rich RNA (structured_RNA)
RNA: GGCCUUCGGGCCAAAUUUUUAUUUUUAUUUUUAUUUUUAUUUUUUCGAUCCGGUUCGCCGGAUCCAAAUCGGGCUUCGGUCCGGUUC
Take B1: the binding result is “no binding” in data set [1], “binds” in [2] and “binds” in [3].

B2: RE1 (structured_RNA)
RNA: GGCCUUCGGGCCAAAUUUAUUUAUUUAUUUAUUUAGCUGACGAUCCACACACACAGGAAUCGACUCUGUUUGUUUGUGUUUGUUUGUACUGAAUUGGCACUUUUCCCCUUUUCCCUUUCUGGACUGGCAUCGAUCCGGUUCGCCGGAUCCAAAUCGGGCUUCGGUCCGGUUC
B2: the binding result in data set [4] and in [5] was “binds” throughout.

B3: AC-rich RNA (structured_RNA)
RNA: GGCCUUCGGGCCAAACCCCCACCCCCACCCCCACCCCCACCCCCUCGAUCCGGUUCGCCGGAUCCAAAUCGGGCUUCGGUCCGGUUC
For B3, the binding result in data set [1] (two conformers in gel) and in [3] (two conformers in gel) was “no binding” each time.

B4: RE2 (structured_RNA)
RNA: GGCCUUCGGGCCAAAUUUAUUUAUUUAUUUAGCGAGAAGUUGUUUGUUUGUGUUUGACGUCUGUGUGGACGUCACACACAGGAUGCAUCGGACCUUUUCCCCUUUUCCCUUUUCGAUCCGGUUCGCCGGAUCCAAAUCGGGCUUCGGUCCGGUUC
Take B4: the binding result in data set [6] and in data set [7] was “binds” throughout.

B5: RE5 (structured_RNA)
RNA: GGCCUUCGGGCCAAACCGUACACACACACAUGGCUAGACGGUAUGUUUGUUUGUUGUUUGUUUGUUGUUUGUUUGUGUUUGACGUAGGAAUUUAAUUUAAUUUAAUUUAAUUUAAUUUAAUUUACAGGCUACGUAGGCCAGGACCCCUCUUUUCUCCCCAGGACCCCUCUUUUCUCCCCAUUCACCCUCCCUUCUCCAGAGCGAUUCGAUCCGGUUCGCCGGAUCCAAAUCGGGCUUCGGUCCGGUUC
As to B5, the binding result in data set [8] and in data set [9] was “binds” throughout.
